Experimental data as given in patent US20250320281A1.

Columns and labels:
Assay in all cases: cell-based or functional assay
[1] = biological target: HIV-1 Env of isolate 94KE105 (pseudovirus) (HIV-1)
[2] = biological target: HIV-1 Env of isolate 92TH021 (pseudovirus) (HIV-1)
[3] = biological target: HIV-1 Env of isolate MGRM-A-008 (pseudovirus) (HIV-1)
[4] = biological target: HIV-1 Env of isolate VLGCA1 (pseudovirus) (HIV-1)
[5] = biological target: HIV-1 Env of isolate MGRM-A-014 (pseudovirus) (HIV-1)
[6] = biological target: HIV-1 Env of isolate MGRM-A-009 (pseudovirus) (HIV-1)
[7] = biological target: HIV-1 Env of isolate MGRM-A-005 (pseudovirus) (HIV-1)
[8] = biological target: HIV-1 Env of isolate 93UG077 (pseudovirus) (HIV-1)
[9] = biological target: HIV-1 Env of isolate MGRM-A-006 (pseudovirus) (HIV-1)
[10] = biological target: HIV-1 Env of isolate MGRM-A-003 (pseudovirus) (HIV-1)
[11] = biological target: HIV-1 Env of isolate 92UG037 (pseudovirus) (HIV-1)
[12] = biological target: HIV-1 Env of isolate 93WR029 (pseudovirus) (HIV-1)
[13] = biological target: HIV-1 Env of isolate MGRM-A-011 (pseudovirus) (HIV-1)
[14] = biological target: HIV-1 Env of isolate MGRM-A-007 (pseudovirus) (HIV-1)
[15] = biological target: HIV-1 Env of isolate 92WR026 (pseudovirus) (HIV-1)
[16] = biological target: HIV-1 Env of isolate 92WR024 (pseudovirus) (HIV-1)
[17] = biological target: HIV-1 Env of isolate MGRM-A-012 (pseudovirus) (HIV-1)
[18] = biological target: HIV-1 Env of isolate MGRM-A-013 (pseudovirus) (HIV-1)
[19] = biological target: HIV-1 Env of isolate MGRM-A-010 (pseudovirus) (HIV-1)
[20] = biological target: HIV-1 Env of isolate MGRM-AE-001 (pseudovirus) (HIV-1)
[21] = biological target: HIV-1 Env of isolate MGRM-A-002 (pseudovirus) (HIV-1)
[22] = biological target: HIV-1 Env of isolate 92WR009 (pseudovirus) (HIV-1)
[23] = biological target: HIV-1 Env of isolate MGRM-A-004 (pseudovirus) (HIV-1)
[24] = biological target: HIV-1 Env of isolate 92RW008 (pseudovirus) (HIV-1)
[25] = biological target: HIV-1 Env of isolate 92UG031 (pseudovirus) (HIV-1)
[26] = biological target: HIV-1 Env of isolate MGRM-AE-002 (pseudovirus) (HIV-1)
[27] = biological target: HIV-1 Env of isolate MGRM-AE-003 (pseudovirus) (HIV-1)
[28] = biological target: HIV-1 Env of isolate MGRM-A-001 (pseudovirus) (HIV-1)
[29] = biological target: HIV-1 Env of isolate CMU02 (pseudovirus) (HIV-1)
[30] = biological target: HIV-1 Env of isolate 92WR020 (pseudovirus) (HIV-1)
[31] = biological target: HIV-1 Env of isolate 92WR021 (pseudovirus) (HIV-1)
[32] = biological target: HIV-1 Env of isolate 94UG103 (pseudovirus) (HIV-1)
[33] = biological target: HIV-1 Env of isolate MGRM-F1-021 (HIV-1)
[34] = biological target: HIV-1 Env of isolate MG RM-D-011 (HIV-1)
[35] = biological target: HIV-1 Env of isolate MGRM-F1-018 (HIV-1)
[36] = biological target: HIV-1 Env of pseudovirus MGRM-AG-012 (subtype AG) (HIV-1)
[37] = biological target: HIV-1 Env of pseudovirus MGRM-AG-001 (subtype AG) (HIV-1)
[38] = biological target: HIV-1 Env of isolate MGRM-F1-020 (HIV-1)
[39] = biological target: HIV-1 Env of isolate MG RM-D-019 (HIV-1)
[40] = biological target: HIV-1 Env of isolate MG RM-D-012 (HIV-1)
[41] = biological target: HIV-1 Env of pseudovirus MGRM-AE-008 (subtype AE) (HIV-1)
[42] = biological target: HIV-1 Env of pseudovirus MGRM-AG-003 (subtype AG) (HIV-1)
[43] = biological target: HIV-1 Env of pseudovirus MGRM-AG-005 (subtype AG) (HIV-1)
[44] = biological target: HIV-1 Env of isolate MGRM-F1-008 (HIV-1)
[45] = biological target: HIV-1 Env of pseudovirus MGRM-AG-009 (subtype AG) (HIV-1)
[46] = biological target: HIV-1 Env of isolate MGRM-F1-016 (HIV-1)
[47] = biological target: HIV-1 Env of isolate MGRM-F1-010 (HIV-1)
[48] = biological target: HIV-1 Env of isolate MG RM-D-013 (HIV-1)
[49] = biological target: HIV-1 Env of isolate MGRM-F1-023 (HIV-1)
[50] = biological target: HIV-1 Env of pseudovirus MGRM-AG-002 (subtype AG) (HIV-1)
[51] = biological target: HIV-1 Env of isolate MGRM-F1-012 (HIV-1)
[52] = biological target: HIV-1 Env of pseudovirus MGRM-AG-008 (subtype AG) (HIV-1)
[53] = biological target: HIV-1 Env of isolate MG RM-D-020 (HIV-1)
[54] = biological target: HIV-1 Env of isolate MG RM-D-016 (HIV-1)
[55] = biological target: HIV-1 Env of isolate MG RM-D-021 (HIV-1)
[56] = biological target: HIV-1 Env of isolate MG RM-D-026 (HIV-1)
[57] = biological target: HIV-1 Env of isolate MG RM-D-014 (HIV-1)
[58] = biological target: HIV-1 Env of pseudovirus MGRM-AG-006 (subtype AG) (HIV-1)
[59] = biological target: HIV-1 Env of isolate MG RM-D-018 (HIV-1)
[60] = biological target: HIV-1 Env of isolate MGRM-F1-015 (HIV-1)
[61] = biological target: HIV-1 Env of pseudovirus MGRM-AG-011 (subtype AG) (HIV-1)
[62] = biological target: HIV-1 Env of isolate MGRM-F1-022 (HIV-1)
[63] = biological target: HIV-1 Env of isolate MGRM-F1-017 (HIV-1)
[64] = biological target: HIV-1 Env of isolate MG RM-D-024 (HIV-1)
[65] = biological target: HIV-1 Env of pseudovirus MGRM-AG-013 (subtype AG) (HIV-1)
[66] = biological target: HIV-1 Env of isolate MG RM-D-029 (HIV-1)
[67] = biological target: HIV-1 Env of pseudovirus MGRM-AE-007 (subtype AE) (HIV-1)
[68] = biological target: HIV-1 Env of isolate MG RM-D-022 (HIV-1)
[69] = biological target: HIV-1 Env of isolate MGRM-F1-014 (HIV-1)
[70] = biological target: HIV-1 Env of isolate MGRM-F1-006 (HIV-1)
[71] = biological target: HIV-1 Env of isolate MGRM-F1-013 (HIV-1)
[72] = biological target: HIV-1 Env of isolate MGRM-Chronic-B-012 (HIV-1)
[73] = biological target: HIV-1 Env of isolate MG RM-D-028 (HIV-1)
[74] = biological target: HIV-1 Env of isolate MGRM-F1-004 (HIV-1)

Sequence of PGT-145 (4995_P16) (antibody) (VH): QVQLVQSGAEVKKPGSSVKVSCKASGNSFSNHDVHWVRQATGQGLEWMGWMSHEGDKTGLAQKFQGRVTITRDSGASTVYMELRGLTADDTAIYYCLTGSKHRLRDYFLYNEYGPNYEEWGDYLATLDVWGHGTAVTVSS
Sequence of PGT-145 (4995_P16) (antibody) (VL): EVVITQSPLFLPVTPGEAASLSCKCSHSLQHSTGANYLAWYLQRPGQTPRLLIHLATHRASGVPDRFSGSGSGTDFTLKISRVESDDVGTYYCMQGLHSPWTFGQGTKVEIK

PGT-122 (4877_D15) (antibody)
IC50 (µg/mL), pseudovirus neutralization [1]: 0.056 µg/mL
IC50 (µg/mL), pseudovirus neutralization [2]: > 50 µg/mL
IC50 (µg/mL), pseudovirus neutralization [3]: > 50 µg/mL
IC50 (µg/mL), pseudovirus neutralization [4]: > 50 µg/mL
IC50 (µg/mL), pseudovirus neutralization [5]: 0.007 µg/mL
IC50 (µg/mL), pseudovirus neutralization [6]: 0.012 µg/mL
IC50 (µg/mL), pseudovirus neutralization [7]: > 50 µg/mL
IC50 (µg/mL), pseudovirus neutralization [8]: 0.084 µg/mL
IC50 (µg/mL), pseudovirus neutralization [9]: > 50 µg/mL
IC50 (µg/mL), pseudovirus neutralization [10]: 3.79 µg/mL
IC50 (µg/mL), pseudovirus neutralization [11]: 0.068 µg/mL
IC50 (µg/mL), pseudovirus neutralization [12]: > 50 µg/mL
IC50 (µg/mL), pseudovirus neutralization [13]: > 50 µg/mL
IC50 (µg/mL), pseudovirus neutralization [14]: > 50 µg/mL
IC50 (µg/mL), pseudovirus neutralization [15]: 0.036 µg/mL
IC50 (µg/mL), pseudovirus neutralization [16]: > 50 µg/mL
IC50 (µg/mL), pseudovirus neutralization [17]: 0.257 µg/mL
IC50 (µg/mL), pseudovirus neutralization [18]: 2.47 µg/mL
IC50 (µg/mL), pseudovirus neutralization [19]: 2.51 µg/mL
IC50 (µg/mL), pseudovirus neutralization [20]: > 50 µg/mL
IC50 (µg/mL), pseudovirus neutralization [21]: 0.017 µg/mL
IC50 (µg/mL), pseudovirus neutralization [22]: 42.4 µg/mL
IC50 (µg/mL), pseudovirus neutralization [23]: > 50 µg/mL
IC50 (µg/mL), pseudovirus neutralization [24]: 0.003 µg/mL
IC50 (µg/mL), pseudovirus neutralization [25]: > 50 µg/mL
IC50 (µg/mL), pseudovirus neutralization [26]: > 50 µg/mL
IC50 (µg/mL), pseudovirus neutralization [27]: > 50 µg/mL
IC50 (µg/mL), pseudovirus neutralization [28]: > 50 µg/mL
IC50 (µg/mL), pseudovirus neutralization [29]: > 50 µg/mL
IC50 (µg/mL), pseudovirus neutralization [30]: 0.009 µg/mL
IC50 (µg/mL), pseudovirus neutralization [31]: 0.021 µg/mL
IC50 (µg/mL), pseudovirus neutralization [32]: 2.04 µg/mL

PGT-145 (4995_P16) (antibody)
IC50 [33]: 8.04 µg/mL
IC50 [34]: 14.7 µg/mL
IC50 [35]: 1.02 µg/mL
IC50, pseudovirus neutralization [36]: > 50 µg/mL
IC50, pseudovirus neutralization [37]: 0.164 µg/mL
IC50 [38]: 0.816 µg/mL
IC50 [39]: 0.111 µg/mL
IC50 [40]: > 50 µg/mL
IC50, pseudovirus neutralization [41]: 1.46 µg/mL
IC50, pseudovirus neutralization [42]: > 50 µg/mL
IC50, pseudovirus neutralization [43]: 0.045 µg/mL
IC50 [44]: 0.228 µg/mL
IC50, pseudovirus neutralization [45]: > 50 µg/mL
IC50 [46]: 17.5 µg/mL
IC50 [47]: 3.32 µg/mL
IC50 [48]: 3.48 µg/mL
IC50 [49]: 5.88 µg/mL
IC50, pseudovirus neutralization [50]: 0.056 µg/mL
IC50 [51]: 0.113 µg/mL
IC50, pseudovirus neutralization [52]: 0.244 µg/mL
IC50 [53]: 10 µg/mL
IC50 [54]: > 50 µg/mL
IC50 [55]: > 50 µg/mL
IC50 [56]: 0.41 µg/mL
IC50 [57]: 2.51 µg/mL
IC50, pseudovirus neutralization [58]: 6.6 µg/mL
IC50 [59]: 0.065 µg/mL
IC50 [60]: 1.76 µg/mL
IC50, pseudovirus neutralization [61]: 0.003 µg/mL
IC50 [62]: 0.009 µg/mL
IC50 [63]: 0.286 µg/mL
IC50 [64]: 0.224 µg/mL
IC50, pseudovirus neutralization [65]: 14.4 µg/mL
IC50 [66]: 0.03 µg/mL
IC50, pseudovirus neutralization [67]: 0.181 µg/mL
IC50 [68]: 34.3 µg/mL
IC50 [69]: 0.009 µg/mL
IC50 [70]: 13.6 µg/mL
IC50 [71]: 0.402 µg/mL
IC50, pseudovirus neutralization [72]: 9.06 µg/mL
IC50 [73]: 0.721 µg/mL
IC50 [74]: 0.361 µg/mL
